From the MegaScale stability set (Tsuboyama et al. 2023)

B1: 1ZHC (parent)
chain: HEFRDEISVLKANNPHFDKIFEKHNQLDDDIKTAEQQNASDAEVSHMKKQKLKLKDEIHSMIIEYREK

Variants of: B1
Assay: folding stability dG (cDNA display proteolysis); higher = more stable
Details: PBS, room temperature

Folding stability dG [kcal/mol], by site and new letter:
E43: V 1.22; W 1.26; Y 1.2
V44: C -0.468; G 0.622; I 1.57; K -0.664; L 1.37; M 0.497; R -0.295; S -0.907; T -0.308; Y -0.518
S45: A 1.09; C 1.15; D 0.937; E 1.07; F 0.625; G 0.349; H 0.845; I 0.788; K 0.976; L 0.524; M 1.01; N 1.05; R 0.873; T 1.34; V 0.431; W 0.834; Y 0.766
H46: A 1.5; C 1.09; D 0.734; E 1.47; F 1.02; G 0.785; I 1.23; K 1.46; L 1.36; M 1.1; N 1.14; P -0.278; Q 1.17; R 1.97; S 1.28; T 0.889; V 0.657; W 1.29; Y 1.19
M47: A -0.981; C -0.078; I -0.393; L 1.59; V -0.869; W 0.576; Y -0.412
K48: A 0.086; C 0.421; E -0.818; F 0.266; I 0.568; L 0.4; M 0.757; N -0.844; Q 0.238; R 0.398; S -0.947; T 0.032; V 0.419; W 0.118; Y 0.617
K49: A 1.29; C 1.11; D 0.75; E 0.919; F 0.439; G 0.492; H 0.527; I 1.18; L 0.949; M 1.19; N 0.588; Q 1.27; R 1.03; S 0.881; T 0.971; V 0.867; W 0.556; Y 1.2
Q50: A 0.475; C 1.12; E 0.976; F 0.915; G -0.255; H 0.479; I 0.757; K 0.22; L 1.55; M 1; N -0.038; R 0.642; S -0.299; T 0.433; V 0.067; W 0.792; Y 0.509
K51: A 0.915; C 0.855; E -0.779; F 1.65; G -0.631; H 0.299; I 1.3; L 2.36; M 1.52; N -0.683; Q 0.766; R 1.29; S 0.403; V 0.721; W 1.57; Y 1.5
L52: A 1.08; C 0.71; D 1.02; E 1.17; F 0.588; G -0.063; H 0.494; I 0.913; K 0.948; M 1.28; N 0.952; Q 1.28; S 0.812; T 0.288; V 0.329; W 0.394; Y 0.359
K53: A 1.12; C 0.879; D -0.039; E 0.543; F 0.261; H 0.266; I 0.711; L 1.16; M 1.05; N -0.015; P -0.251; Q 0.53; R 0.995; S 0.351; T 0.66; V 0.811; W 0.603; Y 0.301
L54: C -0.495; I -0.626; M -0.648; W -0.913; Y 0.165
K55: A 1.67; C 2.15; D 0.359; E 0.926; F 1.65; G 0.766; H 1.27; I 1.09; L 1.45; M 1.72; N 0.726; Q 1.28; R 1.51; S 1.14; T 0.273; V 0.758; W 2.94; Y 1.47
D56: A 1.27; C 1.36; E 1.29; F 1.18; G 0.971; H 1.07; I 1.25; K 1.22; L 1.61; M 1.57; N 1.07; Q 1.51; R 1.21; S 0.621; T 0.838; V 1.02; W 1.39; Y 1.5
E57: A 0.703; C 0.959; D -0.8; F -0.51; H -0.994; I 0.87; K 0.212; L 0.992; M 1.16; Q 0.719; R -0.034; S -0.103; T 0.674; V 0.286; W 0.602; Y 0.52
I58: C 0.015; F 0.304; H -0.628; L 0.496; M 0.19; R -0.534; V -0.599; W -0.545
H59: A 0.525; D 1.11; E 1.21; F 1.43; I 1.83; K 0.399; L 2.03; M 1.92; N 0.996; Q 0.83; R 1.04; S 0.624; T 1.06; V 1.3; W 1.83; Y 1.61
S60: A 1.48; C 1.18; D 0.536; E 0.466; F 0.717; G 0.362; H 0.79; I 0.697; K 1.51; L 0.991; M 1.29; N 0.933; Q 1.2; R 1.65; T 0.912; V 0.267; W 0.696; Y 0.561
M61: A -0.996; C -0.322; F 0.209; H 0.422; I 0.447; L 0.762; W -0.462; Y 0.306
I62: C -0.713; F 0.011; H -0.624; L 0.874; M 0.117; V 0.282; W -0.3
I63: A 0.8; C 1.17; D -0.032; E 0.513; F 0.401; G -0.621; H 0.728; K 0.899; L 1.24; M 1.4; N 0.622; Q 1.12; R 0.974; S 0.079; T 0.157; V 0.61; W -0.039; Y 0.129
E64: A 1.31; C 0.731; D 0.037; F 0.527; G -0.85; H 0.632; I 0.119; K 0.999; L 0.829; M 0.766; N 0.583; Q 0.969; R 0.669; S 0.735; T 0.262; V -0.038; W 0.701; Y 0.484
Y65: A 0.205; C -0.316; E -0.672; F 1.01; H 0.113; I 0.311; L 0.386; M 0.384; N -0.975; Q 0.149; S -0.451; V -0.888; W 0.961
R66: C 0.384; F 0.147; H 1.53; I 0.692; K 0.404; L 1.07; M 0.762; Q 0.328; S -0.498; V 0.348; W 0.163; Y 0.091
E67: A 1.08; C 1.33
